Measured values as given in patent publication US20110086006.
Where two headings read alike, the source gives them in different places.

How the values were obtained:
[1] = test system: internally quenched fluorogenic peptide (FRET substrate), Ac-DED(EDANS)EEαAbuψ[COO]ASK(DABCYL)-NH2
[2] = test system: KK4A peptide (KKGSVVIVGRIVLSGK), central region of the NS4A cofactor from genotype 1a with lysine residues added for improved solubility
[3] = target: T1, internally quenched fluorogenic peptide (FRET substrate), Ac-DED(EDANS)EEαAbuψ[COO]ASK(DABCYL)-NH2
T1 chain: DEDEEXASK

[4] = target: T2, KK4A peptide (KKGSVVIVGRIVLSGK), central region of the NS4A cofactor from genotype 1a with lysine residues added for improved solubility
T2 chain: KKGSVVIVGRIVLSGK

## wild type HCV NS3 serine protease domain, genotype 1a
[1]
  Kcat: 1.2 s⁻¹
  Kcat/Km: 897000 M⁻¹ s⁻¹
  Km: 1.3 µM
[2]
  kinetic parameters for the FRET substrate: Although the NS4A peptide co-factor was from HCV genotype 1a, no discernable difference in the kinetic parameters was observed

B1: D168V mutant HCV NS3 serine protease domain, genotype 1b (protein)
chain: APITAYSQQTRGLLGCIITSLTGRDRNQVEGEVQVVSTATQSFLATCVNGVCWTVYHGAGSKTLAGPKGPITQMYTNVDQDLVGWQAPPGARSLTPCTCGSSDLYLVTRHADVIPVRRRGDSRGSLLSPRPVSYLKGSSGGPLLCPSGHAVGIFRAAVCTRGVAKAVVFVPVESMETTMRSHHHHHH
[3]
  Kcat: 0.6 s⁻¹
  Kcat/Km: 498000 M⁻¹ s⁻¹
  Km: 1.2 µM

B2: A156V mutant HCV NS3 serine protease domain, Con1 strain (protein)
chain: APITAYSQQTRGLLGCIITSLTGRDRNQVEGEVQVVSTATQSFLATCVNGVCWTVYHGAGSKTLAGPKGPITQMYTNVDQDLVGWQAPPGARSLTPCTCGSSDLYLVTRHADVIPVRRRGDSRGSLLSPRPVSYLKGSSGGPLLCPSGHAVGIFRVAVCTRGVAKAVDFVPVESMETTMRSHHHHHH
[3]
  Km: 2.6 µM
  kcat: 0.6 s⁻¹
  kcat/Km: 234000 M⁻¹ s⁻¹

B3: A156S mutant HCV NS3 serine protease domain, genotype 1b (protein)
chain: APITAYSQQTRGLLGCIITSLTGRDRNQVEGEVQVVSTATQSFLATCVNGVCWTVYHGAGSKTLAGPKGPITQMYTNVDQDLVGWQAPPGARSLTPCTCGSSDLYLVTRHADVIPVRRRGDSRGSLLSPRPVSYLKGSSGGPLLCPSGHAVGIFRSAVCTRGVAKAVDFVPVESMETTMRSHHHHHH
[3]
  Kcat: 0.6 s⁻¹
  Kcat/Km: 664000 M⁻¹ s⁻¹
  Km: 0.9 µM

B4: A156T mutant HCV NS3 serine protease domain, Con1 strain (protein)
chain: APITAYSQQTRGLLGCIITSLTGRDRNQVEGEVQVVSTATQSFLATCVNGVCWTVYHGAGSKTLAGPKGPITQMYTNVDQDLVGWQAPPGARSLTPCTCGSSDLYLVTRHADVIPVRRRGDSRGSLLSPRPVSYLKGSSGGPLLCPSGHAVGIFRTAVCTRGVAKAVDFVPVESMETTMRSHHHHHH
[3]
  Km: 1.3 µM
  kcat: 0.2 s⁻¹
  kcat/Km: 136000 M⁻¹ s⁻¹

B5: wild type HCV NS3 serine protease domain, genotype 1b (Con1), residues Ala1-Ser181 with a C-terminal hexa-histidine tag (protein)
chain: APITAYSQQTRGLLGCIITSLTGRDRNQVEGEVQVVSTATQSFLATCVNGVCWTVYHGAGSKTLAGPKGPITQMYTNVDQDLVGWQAPPGARSLTPCTCGSSDLYLVTRHADVIPVRRRGDSRGSLLSPRPVSYLKGSSGGPLLCPSGHAVGIFRAAVCTRGVAKAVDFVPVESMETTMRSHHHHHH
[3]
  Kcat: 1 s⁻¹
  Kcat/Km: 947000 M⁻¹ s⁻¹
  Km: 1.1 µM
  kcat: 1 s⁻¹
  kcat/Km: 947000 M⁻¹ s⁻¹
[4]
  kinetic parameters for the FRET substrate: Although the NS4A peptide co-factor was from HCV genotype 1a, no discernable difference in the kinetic parameters was observed

B6: D168A mutant HCV NS3 serine protease domain, genotype 1b (protein)
chain: APITAYSQQTRGLLGCIITSLTGRDRNQVEGEVQVVSTATQSFLATCVNGVCWTVYHGAGSKTLAGPKGPITQMYTNVDQDLVGWQAPPGARSLTPCTCGSSDLYLVTRHADVIPVRRRGDSRGSLLSPRPVSYLKGSSGGPLLCPSGHAVGIFRAAVCTRGVAKAVAFVPVESMETTMRSHHHHHH
[3]
  Kcat: 0.3 s⁻¹
  Kcat/Km: 150000 M⁻¹ s⁻¹
  Km: 2 µM
